In article PMC10784701:

Molecular target: RedM, N,N-dimethyltransferase of the reductasporine biosynthetic pathway
Experiment: SEC; size-exclusion chromatography of purified RedM in solution (Fig. S3); conditions of this run not shown

stoichiometry N: 2
Substance: RedM, N,N-dimethyltransferase of the reductasporine biosynthetic pathway (enzyme)
